Experimental findings from patent EP4782465A1 are described below.

The target in test [1] is Human insulin receptor subtype B (human) (UniProt P06213). Description: cell-based or functional assay.
The target in test [2] is Insulin receptor of C2C12 mouse myoblasts (mouse) (UniProt P15208). The test can be described thus: cell-based or functional assay.
Insulin receptor of C2C12 mouse myoblasts (mouse), sequence (P15208 28-1372): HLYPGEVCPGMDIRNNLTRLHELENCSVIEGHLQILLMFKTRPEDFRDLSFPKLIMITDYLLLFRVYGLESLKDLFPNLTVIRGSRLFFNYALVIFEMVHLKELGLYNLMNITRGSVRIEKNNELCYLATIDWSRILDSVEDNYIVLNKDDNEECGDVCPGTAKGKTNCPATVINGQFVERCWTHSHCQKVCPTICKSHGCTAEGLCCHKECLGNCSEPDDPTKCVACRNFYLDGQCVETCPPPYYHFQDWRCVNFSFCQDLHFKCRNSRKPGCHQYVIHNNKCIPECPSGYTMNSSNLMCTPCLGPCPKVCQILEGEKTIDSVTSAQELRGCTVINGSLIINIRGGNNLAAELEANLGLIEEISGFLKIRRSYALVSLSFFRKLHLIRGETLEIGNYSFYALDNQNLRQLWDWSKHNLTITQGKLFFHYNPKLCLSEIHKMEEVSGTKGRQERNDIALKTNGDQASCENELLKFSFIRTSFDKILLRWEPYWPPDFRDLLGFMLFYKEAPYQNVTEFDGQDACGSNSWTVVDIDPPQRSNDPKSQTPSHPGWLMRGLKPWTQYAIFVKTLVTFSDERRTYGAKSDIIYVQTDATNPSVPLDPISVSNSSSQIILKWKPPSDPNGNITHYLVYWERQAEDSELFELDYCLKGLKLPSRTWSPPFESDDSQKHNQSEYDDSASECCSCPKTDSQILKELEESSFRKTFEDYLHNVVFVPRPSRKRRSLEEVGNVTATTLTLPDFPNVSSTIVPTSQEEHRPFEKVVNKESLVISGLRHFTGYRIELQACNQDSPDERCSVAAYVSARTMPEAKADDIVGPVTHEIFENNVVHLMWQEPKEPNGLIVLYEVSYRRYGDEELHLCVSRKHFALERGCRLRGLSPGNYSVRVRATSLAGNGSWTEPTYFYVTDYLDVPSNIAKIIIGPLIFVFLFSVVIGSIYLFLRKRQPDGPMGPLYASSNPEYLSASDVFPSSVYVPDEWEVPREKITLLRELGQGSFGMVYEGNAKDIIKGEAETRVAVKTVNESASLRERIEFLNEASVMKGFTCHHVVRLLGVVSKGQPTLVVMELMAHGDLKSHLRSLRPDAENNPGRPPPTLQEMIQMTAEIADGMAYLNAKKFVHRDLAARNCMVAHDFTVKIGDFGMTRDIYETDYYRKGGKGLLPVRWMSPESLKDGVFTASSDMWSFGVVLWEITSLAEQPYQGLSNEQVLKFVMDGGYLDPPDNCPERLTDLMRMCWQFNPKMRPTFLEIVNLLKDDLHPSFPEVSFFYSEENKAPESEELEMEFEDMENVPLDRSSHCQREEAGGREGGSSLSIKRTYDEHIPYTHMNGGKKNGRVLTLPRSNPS

In test [1], LY3209590 (Fc fusion) displayed a Human insulin receptor subtype B activity (EC50) of 116 nM. The AKT phosphorylation activity (EC50) in test [2] worked out at 194 nM.
